Consider 20 sequences from the DeepSol protein solubility set.

The data set can be described thus: soluble on expression in E. coli; label from the status in PepcDB or PDB records.
Take “GPGSMSALNDSRTTSGRPLPGGKPYALRPEGIPPSLCGDNVGASRGGDSIGDFKTAFEQPHSIDSEEEGDVEAASSPEQRLRRVQRDVYRHERQIASLFSEKHEHCEHLATVYKELEKVLRKIQLAPLEDLKGHAASPSASTFCAPSSDEDGYAASSTVSALASSLQQRFHQVLQQHQDRVYDVLVDYRQQINKSEYETGRRLCAIEEAIAQIQSDVRELQHTASIQVEELRHVQQDVRQRVEAVAVQQEAQRAALDATREARDTKAAKLLSKIQDDVAGLRADAKAARTQQIESAKDVEEQIRSLLSAQHRTEEALGAHSASIAQLQNQDSLEGAFHEVKDWLGDLEKRMVSRGELLQWTASLQSEIHQMRRVTGGVLSHTIEPTAPGQDA”: the “soluble on expression in E. coli” value was “soluble”.
The entry for “MAHHHHHHMRTSAAVLSLFRGQRRLSCTMTAPLATRRFCRSTGDGLQKDWRPLSTTPHQPGPDTPASPSSSKSSANLDACEGALRAAPEGPASSKRGSSFASLALQRGSGEKANRMDRTAGLYKHTIVTETDKAPTGVARSATASSVSTGAGLTAERKKYATIPLRHCGTRAEPGNGSRSASSPPSASNSKREMTAQTEAPKTIKTAARPQDGPMVPDYGPLRATGLWSVEEVLDESKKTVDFRRIDDVESEIIEDHTNAEEALVPYAEEEAWKHKLMFEYKFKKTPKHLTWKEMGEEIECMDCVIELDEHRPEELFTIFFYFTDKKTGTRDLVWSARNDVSYSEGFTDLLAAIGACLGRSDVHRTIRFDDGVGCTRDLTFRKRSRYTSDVYVAFRPPEKYDKFQRKEEKDEYEASMEREGMSTWGYHPSLMDPEFSELDFKDPEGTYEVAISAHGFSFVVLRAIGRLLARPMKDFYRPSQLMRTAKVRTEDEIGFTHALKGWLGVDEQLYPHYTPIEALQDHWLGKDAPFSLCAIVNKLREMNYLKKENPEFQSWLSVRSHDTHLAIRNMGVKLLGVGASTLFVPVSHNATVNRLLPKPQQRRLESRFSLNAVLGLPDETRKLKDFKQITGHDRITDVPTSSTRETATIASPAQDEASVKNSPT” is “not soluble”; for “MGIRVVFERPQGGERAVLVQLALPGVDADKALAEFEELALSAKAEVLDCVLGARATPDAKYYVGKGKAEEIAHLVNMLDADLVLVNHELSPSQERNLERLFGCRVVDRSGLILDIFAQRARTFEGKLQVELAQLQHLSTRLIRGWTHLERQKGGIGLRGPGETQLETDRRLLRERIRYINKRLEKVRCSRDQNRQARRKASMPTVSLVGYTNAGKSTLFNVLTGEHTYVADQLFATLDPTMRKLELPGSSAAILADTVGFIRDLPHHLVEAFRATLEETQQADLLLHVIDISDPNWRETVFEVQKVLDELKVNNIPVIQVFNKIDLQEGWQPKIDYTEDSCKVWLSATTGAGLDLLKEAIATQLHGMILIEDIVIKPDQAKLRAQLYQLGAVLKESVDENGDWLMKIRITADQKRRLLSAAALEHHHHHH” it is “not soluble”.
The entry for “SESPEGAGPGEIVKDVKVPQAALNVSAHETGDMCRTPVAEEEEEVGIPIPAPGFLQVTERRRLHPLSRASCLRSPSWTKTRAEQNREKQPPSDPERQGTIVDTFLTVEEPKED” is “soluble”; for “MAHHHHHHSLKNTLGRQFSRATETYEKWAVPQRKSAKILVEFVKPSGLVLDLGCGTGFISEFVNDCEVVGLDISEGMAKAYREKFRKVVIGNAENLPFKDRSFDFVLSNFSLHWSDWRKSIREALRVCKNFVGVAIPVYGSVSFSEFPFPKAEEILEEFKPQEFKIINLEIPFRGMELIKFFHYTGTANFTGKKNFKTKRELIKLSKDLEKEYFKVLFLKLKSRAFEG” it is “soluble”; for “MAHHHHHHMPSMDSLRTAVDNAPLLVNLLRLIRNARSPNYKDHEKGPVTFHFGGLSMRDTGSYEAAEELWRQSSWSSGALAPNAAGPFRGPLHLVVYLNHSPVEVWTLQDYREPATDHSVPRDFEQLEALNTLVRVLFAHLRCQDIYGVVLQSCVTATDDANNHFPASPNGNVSSPPHFPPPRNASLSRARTPHSPANHVSLRLFRSAEDCPTMPVHARRQYLWSSDDFVRVDVTMDRTWRHHSWVQPGTQAASPVLAAGDRERDTAVCAAGERSSPIRTASPGLRHFGSEGDTRSQSISPEAMGSLDKSSLPTPYLAPAATLALSSHLSRSPRTNLSPLMPGSRLSPAQGVSEFALPPADVSSPFDCDRSRQSRSSPPIMHSCVFASSHPAGGGGATYTAAVGAVNQVEDAVWLSNAEHVRRMGTLVCSRKQSPSASSSPVMGKKPRNSFISQKHEMGSLVPSISIGALSGIGFDRRLLSSDVDLEDLAAETASSGSSASVPNSAAMEQLVSLLGLCSKVKLQHVPSAPFGDLVLSLNLREVP” it is “not soluble”.
“MGSDKIHHHHHHMQPLAQTLDRIRTISEYLKPEFGIPADGNWVSVADDFVSGSPWLTSMIAAEQTRLRTTSAAIIGSTLLQNYQWPIIPTVVACYLFEQRVPDLAPANTRVHFTAEHQADALALLGGRFSALPDDPAAEHPDATIVPDRAALRDAMRTGIESHFAVVIEHICAALGCKPRGLWLNVADAVANALIWLAQQHAAFDPTQIEAEVEAVIRVPGSPLNNRQVGLIQLSYGENRQLFLRRATCCYWYKTEGGEYCLTCPHRTAEDRQARLLAYMAQKYTQQQQLVQEEVTA”: the “soluble on expression in E. coli” value is recorded as “not soluble”.
As to “MSLERNYEESALFEHQFWLKVLTDHAQFLLDALAPKEKEDIKKATYFVETFTNLLNKVRNVNLMAFSKEAEQAAKEIRAFKLNIIQKQLEGKITIHFTPTFINHMVNEVEEYIAVLEFLKKGEVPPVFHELHYHLVWLTDAAGHAGSISGGLDLVEKRLKEKSEEFTKHFEQFYLKAVEMTGYLRTELHHFPALKKFTKDVSLELKLFSHFLHEVEELELSNEVLSVLSARMADHMAREECYYLLKLAQSSGLEMPKCNPLEGHHHHHH”, the “soluble on expression in E. coli” value is “soluble”.
In the case of “MSLEEWIKADSLEKADEYHKRYNYAVTNPVRRKILRMLDKGRSEEEIMQTLSLSKKQLDYHLKVLEAGFCIERVGERWVVTDAGKIVDKIRG”, the “soluble on expression in E. coli” value is “soluble”.
The entry for “MAEPKKLANGKWQLRFKYKDSITNEWKNKMITRSTKKACRDAETEFKSKIMRGENTEAIKLLDFYDIWVDTFKKNKVSAGRMQKIALTRKNLHDFFGDKQLLKGVTKVKYQQWINWLAKPGNINEKGLAVETVSNRHNIVKSMFLEALDMQYIHSNPTRNIKLTGQVPEKKSNKTISIDDLTKFKEALLSRENTTSKYFILVQLYTGARYQEVAALTWDSIDESNEVIKIKNAYKYDAGQYRIGPTKSEAGVRNIDVPSSLFYYLKKYEMEQKKKILRGDLRNPQNFAFVSKKNSWPISNSSVNKYIKETCELANIERISSHSFRHARSDLLILAEADPIYIKTQLGHKEIIQSYEYASATEANRKKNKEKYENKYKDIL” is “not soluble”; for “GLEVTVWNRSAAACEPLVALGAARAEEVGELFGLDVVISMLADDQAIRGVLLDSGALERARPGLIHLSMSTLSLDCVEALDQAHQRQGLAFVAAPVFGRTDVAEAGKLNIVVGGPEEAIEQVKALLEIMGQKTWFFGKDPRGAMAVKISGNFMIASAIESMGESVALVKRLGVEPGRFMELMSSTLFDAPVYRNYGPQIVEQRFTPARFRLVLGLKDVDLALSAGKRHNVPLPLASLLHDVLLEAIAHGDGESDWTALAKVALSRSGQI” it is “not soluble”; for “MSVRRLADDVYQPAEFSFTKENQIWVKNTIEKYPVGREQSAVIPLLMRAQEQDGWVTRAAIEHIAQILSMAYIRVLEIATFYTQFQLQPVGTKAHIQVCGTTPCMLRGSEELIKVCQKKIHHKPFVTNQDGSLSWEEVECLGACVNAPMVMIFKDTYEDLTAKRLEEIIDAFEAGKGAEIAVGPQNSRKSSEPISGLTSLIDEKEQKSLKSLKKKDKKEMGA” it is “not soluble”.
In the case of “MLALGIEGTAHTLGIGIVSEDKVLANVFDTLTTEKGGIHPKEAAEHHARLMKPLLRKALSEAGVSLDDIDVIAFSQGPGLGPALRVVATAARALAVKYRKPIVGVNHCIAHVEITKMFGVKDPVGLYVSGGNTQVLALEGGRYRVFGETLDIGIGNAIDVFARELGLGFPGGPKVEKLAEKGEKYIELPYAVKGMDLSFSGLLTEAIRKYRSGKYRVEDLAYSFQETAFAALVEVTERAVAHTEKDEVVLVGGVAANNRLREMLRIMTEDRGIKFFVPPYDLCRDNGAMIAYTGLRMYKAGISFRLEETIVKQKFRTDEVEIVWHHHHHH” it was “soluble”; in that of “SSSKFQQVEQDVKAIEVSLSARIGVSVLDTQNGEYWDYNGNQRFPLTSTFKTIACAKLLYDAEQGKVNPNSTVEIKKADLVTYSPVIEKQVGQAITLDDACFATMTTSDNTAANIILSAVGGPKGVTDFLRQIGDKETRLDRIEPDLNEGKLGDLRDTTTPKAIASTLNKFLFGSALSEMNQKKLESWMVNNQVTGNLLRSVLPAGWNIADRSGAGGFGARSITAVVWSEHQAPIIVSIYLAQTQASMEERNDAIVKIGHSIFDVYTSQSR”, “soluble”.
The entry for “GHMIKGEQKRYSEMTKEELQQEIAMLTEKARKAEQMGMVNEYAVYERKIAMAKAYMLNPADFHPGEIYEIEGAPGEYFKVRYLKGVFAWGWRLKGNGEEEALPISLLRKPNLPQS” is “soluble”.
Consider “MGSDKIHHHHHHFEDLKPVIADSTKVTQAHTYKDINKLDIDVKDVNVEFREGKNYSVRYEGAKSSSPTVKKSGNQLQIKGRLSSHSIRFNGMSMYDDYYRNSDRNKMIITLPKDSKLDELNLKLSDSLLSQVNMTGIEADRVKASIHDTKLDLRDANFGNVELSAGDSDISMTNTVLSNGKLDLNDTDVRLDGGSLMQVAMNITEGDVDYNNLSIQGGNLRNNDGDIKMSNTQIQGGYKIDDTDGDILVSRVTVDGYRVQSNDGDVRLFEQTTSNGNVLEKNSNSDNVLDIISNDGDITVN”, for which the “soluble on expression in E. coli” value is listed as “not soluble”.
The entry for “MVYVAITIVRVPGPAFSYHCPDFVRLYIEAMGYSPTIAPARIRVWRNAITEQGFVAVCAIDDSSDNPAAIGEGIVGIGYGFTGRSEHWWDQQIHRGLAEQKCPPVARPYFELAELHVSPRAQGQGIGRSLLHALIKHCGHELILLSTPEVPDEKNAAFHLYRSCGFDDLLRNFMFEGDRRPFAVLQRKAHRN” is “not soluble”; for “GFVKEPFFTRLIDLESPFEEEFDKNVRYEIKRAQKESLLFSWGEGVPRFVKFFNAFAQSKGLSLLNEAELSYMGEHLRLTEIRANGEPLVMHSYLLDHSIKRVRLLHSASLFRLSQEKDFRALVGRANRLLHFLDMERFKEEGFKIYDFGGVSHSQDPALLGINRFKEGFGGRE” it is “not soluble”.
In the case of “MGSDKIHHHHHHMQSLHGNCLIAYARHKYILTMVNGEYRYFNGGDLVFADASQIRVDKCVENFVFVSRDTLSLFLPMLKEEALNLHAHKKVSSLLVHHCSRDIPVFQEVAQLSQNKNLRYAEMLRKRALIFALLSVFLEDEHFIPLLLNVLQPNMRTRVCTVINNNIAHEWTLARIASELLMSPSLLKKKLREEETSYSQLLTECRMQRALQLIVIHGFSIKRVAVSCGYHSVSYFIYVFRNYYGMTPTEYQERSAQRLSNRDSAASIVAQGNFYGTDRSAEGIRL” it was “not soluble”.
In the case of “MSLETAGQIIGGETAAVLIRQKAGEPIELGDLLVAEGEGYTILQVKDLRYSSQIPQGMRELASGFNLEGYGREVELLEPELRNYIIAEARPILHVRDGQPMIPKRLPRFFREVRRIREGDLDFLERPGNPVFLGNVRSGSKVLDTPVYVDAVDAITHHILIPATTGRGKSNLVKVMLWSLAEMDRVGILVLDPHDEYYGRNEAGLGRHPSDNVVYYSPDAPVGGNTLTINLRSLRPEHFEGIIPFTQAQEQAIARYYNEYGDGWILKIVEGEELPGVQPVTLNVLRRIFDVILGVHLDDGKIKSRGGVFRERGGESTIKDIAASLEDGKNRCGGHLKAHGRGEGHHHHHH” it was “not soluble”.
